Assay results taken from patent publication US20160168234A1 (published 2016).
Ends that are not written are not given here.

Columns and labels:
Test in all cases: ELISA on biotinylated peptides of the alanine library on streptavidin plates
[1] = target: T1, peptide A16 of the second library (Aβ12-20 with aa 16 changed to alanine) (also: biotinylated, position not given here)
T1 peptide: VHHQALVFF
Excerpt: (§1) One library comprised a total of 33 biotinylated peptides covering the complete amino acid (aa) sequence of Aβ1-42 (produced by Mimotopes and purchased from ANAWA Trading SA), the second library contains biotinylated peptides using peptide 12 (aa12-20 of Aβ) from the first peptide library and substituting each as in the sequence by an alanine (see table 3 below), and the third library contains biotinylated peptides 13, 14, or 15 (aa 13-21, 14-22 or 15-23 of Aβ) and substituting in each case the last amino acids to an alanine or to a glycine for as 21 which is already an alanine (see table 4 below). A biotinylated complete Aβ1-42 peptide was used as positive control (Bachem). Epitope mapping was done according to the manufacturer's (Mimotopes) instructions. Briefly, Streptavidin coated plates (NUNC) were blocked with 0.1% BSA in PBS overnight at 4° C. After washing with PBS-0.05% Tween 20, plates were coated for 1 hour at RT with the different peptides from the library, diluted in 0.1% BSA, 0.1% Sodium Azide in PBS to a final concentration of 10 μM. […] Plates were washed again and incubated with alkaline phosphatase conjugated goat anti human IgG for 1 h at RT. After final washing, plates were incubated with phosphatase substrate (pNPP) and read at 405 nm using an ELISA plate reader.

[2] = target: T2, peptide A17 of the second library (Aβ12-20 with aa 17 changed to alanine) (also: biotinylated, position not given here)
T2 peptide: VHHQKAVFF
Excerpt: as §1

[3] = target: T3, peptide A19 of the second library (Aβ12-20 with aa 19 changed to alanine) (also: biotinylated, position not given here)
T3 peptide: VHHQKLVAF
Excerpt: as §1

[4] = target: T4, peptide A20 of the second library (Aβ12-20 with aa 20 changed to alanine) (also: biotinylated, position not given here)
T4 peptide: VHHQKLVFA
Excerpt: as §1

binding result [1]: no binding (tested: 200 ng/ml)
binding result [2]: no binding (tested: 200 ng/ml)
binding result [3]: no binding (tested: 200 ng/ml)
binding result [4]: no binding (tested: 200 ng/ml)
B1: humanized anti-human amyloid beta monoclonal antibody hC2 (antibody, human IgG4 S228P, kappa)
heavy: not shown
light: DIVMTQSPLSLPVTPGEPASISCRSSQSLVYSNGDTYLHWYLQKPGQSPQLLIYKVSNRFSGVPDRFSGSGSGTDFTLKISRVEAEDVGVYYCSQSTHVPWTFGQGTKVEIKRTVAAPSVFIFPPSDEQLKSGTASVVCLLNNFYPREAKVQWKVDNALQSGNSQESVTEQDSKDSTYSLSSTLTLSKADYEKHKVYACEVTHQGLSSPVTKSFNRGEC
notes: also called humanized antibody C2; humanized C2
